Reference: publication PMC10372118

Key:
Assay in all cases: BLI
[1] = target: human ACE2 polymorphism S19P (rs73635825) (human) (UniProt Q9BYF1)
[2] = target: truncated human ACE2 (residues 19-613 with a C-terminal AviTag and 6xHis-tag), biotinylated (human) (UniProt Q9BYF1)
[3] = target: human ACE2 polymorphism K26R (rs4646116) (human) (UniProt Q9BYF1)
[4] = target: human ACE2 polymorphism E35K (rs1348114695) (human) (UniProt Q9BYF1)

Row | Substance | Kd [1] | t1/2 [2] | Kd [3] | Kd [4]
1 | SARS-CoV-2 Omicron BA.2 RBD (from UniProt P0DTC2) (domain or fragment) | 4.97 nM | 2.7 min | 5.18 nM | –
2 | SARS-CoV-2 RBD of Beta (B.1.351) (from UniProt P0DTC2) (domain or fragment) | – | 165 | – | –
3 | SARS-CoV-2 ancestral receptor-binding domain (RBD), recombinant (from UniProt P0DTC2) (domain or fragment) | 14.4 nM | – | – | –
4 | SARS-CoV-2 RBD of Delta (B.1.617.2) (from UniProt P0DTC2) (domain or fragment) | – | 2.4 min | – | 43.3 nM
